# Assay results reported in the supplement of paper PMC9170038.
# Tested on: MS2 coat protein
# Test: apparent KD of MS2 coat protein; designed switch direction (-1 OFF switch, 1 ON switch): 1; higher = weaker reporter binding
# Procedure, shortened: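 Designed RNA switches with common flanks were transcribed on Illumina chips by stalled E. coli RNA polymerase and titrated with SNAP-549-labelled MS2 coat protein, from 0.7 or 1.5 nM doubling to 3 µM, in Tris-HCl pH 7.5 buffer with KCl, MgCl2, BSA, DTT, tRNA and Tween-20. Steps lasted 0.8–1.5 h (lowest) to 10–20 min (highest). Titrations ran without input, with 200 uM small-molecule ligand, or with an oligonucleotide input. Normalised cluster fluorescence was curve-fitted, and apparent KD is the per-design median over clusters.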
# [1] = Eterna round: R95, input ligand: FMN 200 uM
# [2] = Eterna round: R95, input ligand: microRNA oligo, concentration not stated
# [3] = Eterna round: R95, input ligand: none
# [4] = input ligand: microRNA oligo, concentration not stated
Sequence,apparent KD of MS2 coat protein [1] [nM],apparent KD of MS2 coat protein [2] [nM],apparent KD of MS2 coat protein [3] [nM],apparent KD of MS2 coat protein (input ligand: FMN 200 uM) [nM],apparent KD of MS2 coat protein [4] [nM],apparent KD of MS2 coat protein (input ligand: none) [nM]
AGGGAGGAAGCUGAGGAUAUCGUAAGGAGGACAUGAGGAUCACCCAUGUGUGUGGAAUUGGAGGACGAGAAGGCAGAGGAGUGGG [JR_SS2_Sub054] (puzzle: Same State 2),32.9,27.1,28.9,–,–,–
"AAAGAAAACAUAGGAUAUGUAACAUGAGGAUCACCCAUGUAUACCUCGUAAGAGAUGAUGGAUGGACAGAAGGAUGGUCUCAGG [Default title] (Eterna round: R96, puzzle: Same State NG 2)",–,–,–,134,73.7,80.6
UAGAGAGGAAGCGAGGAUAUCGUGUUAGGUACAUGAGGAUCACCCAUGUUGUAGGUAGAGGUAGGCGAGAAGGCGCAGGAGAGGU [JR_SS2_Sub094] (puzzle: Same State 2),33.4,38.8,41.4,–,–,–
"AAACACGGCAUAACACCGUGACAUGAGGAUCACCCAUGUACACAGGAUAUCAUGGCAAAACGCCAUGAGAAGGGUGAUCAAGAC [Telate] (Eterna round: R96, puzzle: Same State NG 3)",–,–,–,464,68.1,35.1
"AUUGCUAGCACAGGAUAUCAUGCGAAAAUUGCGUGAGAAGGGUGGACGCUGUCAUUCACGGAAGACAUGAGGAUCACCCAUGUC [SameState NG1 #77] (Eterna round: R96, puzzle: Same State NG 1)",–,–,–,44.6,56.2,88.1
"GGUAGGUUACUACCAAACAUGAGGAUCACCCAUGUAAGUGGGAAGGAUAUGGUACCGAAACGGUACCAGAAGGUCCAUAUAGUA [Mat - Same State NG 3 - JL Mod - D100] (Eterna round: R96, puzzle: Same State NG 3)",–,–,–,324,564,1100
UGUCCAGCCUGAGCUGGACAAAAGCAUGUACAUGAGGAUCACCCAUGUUCAUGUACAAGCUUUUUGCUCGUCUUAUG [salish99_208a_r3_052] (puzzle: Sensor for hsa-mir-208a),517,16.4,655,–,–,–
"CCGUAAUAUGGAGGAUAUGGAGCCUUAUUGGCUCCAGAAGGUCAAAACAUGAGGAUCACCCAUGUAUCGGCGGUCAAUAGACCG [Eli NG1ss - 74] (Eterna round: R96, puzzle: Same State NG 1)",–,–,–,42.1,53.3,91.2
"ACAUGAGAUAGAGGAUAUAUUGUACCUACAUGUGACAUGAGGAUCACCCAUGUGGUAAGUAUGACAUAGAAGGCUAAGAUAUGU [Equivalance 82 - Jieux - Same State NG 2] (Eterna round: R96, puzzle: Same State NG 2)",–,–,–,28.7,55.6,73.9
"ACGCUAGUCACAGGAUAUCCGAAAUAUAGCAAAGGAGAAGGGUGAUUAACAUGAGGAUCACCCAUGUAAAAGAAGAAAGAAGAU [Edargebi] (Eterna round: R96, puzzle: Same State NG 1)",–,–,–,173,167,186
UAUGAACAUGAGGAUCACCCAUGUGGAAAGGACACAGGAUAUCACCUCGGACGUGCGAUGUGAGAAGGGUGAUGGU [Anrelari] (puzzle: Same State 1),260,103,125,–,–,–
CGUCCGGCCUGUGCUGGCCGGUGGCUUGUACAUGAGGAUCACCCAUGUUCUUGUGCUGGCUUGUUGCUCGUCUUGUG [salish99_mir208a_r3_022] (puzzle: Sensor for hsa-mir-208a),27.9,19.1,33.4,–,–,–
"GAGUGGAGGAGAGGAUAUACAAUGAUAAUCACUGUAGAAGGUUCUAACAUGAGGAUCACCCAUGUAGGACUAUUCCUGAGAGUU [Parity 51 - Jieux - Same State NG 1] (Eterna round: R96, puzzle: Same State NG 1)",–,–,–,–,9.46,–
"UUGAAUAAUUAAGGAUAUUGAGUACAUAUGUUUAACAUGAGGAUCACCCAUGUGGGUUGCGGUAUCGAGAAGGUAAAUUACUAG [Mat - same State NG 2 - JL mod - D67] (Eterna round: R96, puzzle: Same State NG 2)",–,–,–,145,83.8,125
"ACAUGAGAGAAAGGAUAUGGUGUACCUACAUGUGACAUGAGGAUCACCCAUGUGGUAAGUAUGACUCAGAAGGUUCAGAUAUGU [Equivalance 73 - Jieux - Same State NG 2] (Eterna round: R96, puzzle: Same State NG 2)",–,–,–,16.9,65.6,126
"GGUAGGUUACUACCAUACAUGAGGAUCACCCAUGUAAAUGGGAAGGAUAUGGUACCUAUUUGGUACCAGAAGGUCCAAAUAAUU [Mat - Same State NG 3 - JL Mod - D96] (Eterna round: R96, puzzle: Same State NG 3)",–,–,–,156,645,1170
"AAUCCUGUCACAGGAUAUCCGAGGGCAACCCUCGGAGAAGGGUGAUAGUCUAACAAACACACACAUGAGGAUCACCCAUGUUAA [Sogece] (Eterna round: R96, puzzle: Same State NG 1)",–,–,–,76.9,113,133
AGAAAAGAAAGAAAGGAUAUACAGAAAAGAACAUGAGGAUCACCCAUGUAAGAAGAGGAGGGAGGGUAGAAGGUUCAAGAAAGAA [JR_SS2_Sub017] (puzzle: Same State 2),21,33,19.3,–,–,–
AGUCCACGCUGACGUGGACAAAAGCAUGUACAUGAGGAUCACCCAUGUCAUGUACAAGCUUUUUGCUCGUCUUAAAA [Mat - hsa-mir-208a - Mod of JL - D17] (puzzle: Sensor for hsa-mir-208a),543,14.7,1680,–,–,–
"UUGUUUAGUAAUUAACAUGAGGAUCACCCAUGUCUUGGCUCAGAGGAUAUGCAUGUUUGAUUGUAGCAGAAGGCUGAUUGUUGU [JR_SSNG3_Sub030] (Eterna round: R96, puzzle: Same State NG 3)",–,–,–,65.1,148,107
"AAUCGUUUGAUAGGAUAUCGCUAUACAUGAGGAUCACCCAUGUUUACCACGCUGGUUUUUCAUACCGAGAAGGAUUCUGAUGAU [JL JR sub007 mod 10] (Eterna round: R96, puzzle: Same State NG 2)",–,–,–,36,31.2,35.2
GGGAGACAUGAGGAUCACCCAUGUGGGAGGGAACGAGGAUAUGUAAGGAGAAAGAAUAGAACAGAAGGCGUAGGUG [JR_SS1_Sub021] (puzzle: Same State 1),35.8,55.5,60.8,–,–,–
"GUGGUCAGACAUGAGGAUCACCCAUGUGGAAUAAAUAACGUACAGGAUAUGCAAUAUAGGAUAUAGUAGAAGGGUAGAUUGGUG (Eterna round: R96, puzzle: Same State NG 3)",–,–,–,116,95,123
"UCUCGGGUCGUAGGAUAUGUAGGAUAUGUACAUGAGGAUCACCCAUGUCUACCAGAGACAGAAGGACAGAAGGACGAGCCGAUC [pwkr ssNG2 2FMN 1F5s.6] (Eterna round: R96, puzzle: Same State NG 2)",–,–,–,20.9,25.8,43.7
"UGUUGUAUUACAGGAUAUCUAGUAUUUUUACUUAGAGAAGGGUAUUCACAUGAGGAUCACCCAUGUAUAUACGAGGAAGUUGUG [JMF's solution 50] (Eterna round: R96, puzzle: Same State NG 1)",–,–,–,–,22.9,–
"CGAUUCGCCAGUACAUGAGGAUCACCCAUGUAGAGACCAGUUUAGGAUAUCUUUGCGACGUGCUGAGAGAAGGGAAUAUGGAGC [Eternabot solution 45] (Eterna round: R96, puzzle: Same State NG 3)",–,–,–,33.1,27.5,37.4
"GUUACAUGAGGAUCACCCAUGUAUGUGUGGGAGUAAGUGUCUUAGGAUAUCUAUGAUUUGAUUUAAGAGAAGGAAGAUUGUUGU [JMF's solution 78] (Eterna round: R96, puzzle: Same State NG 3)",–,–,–,122,80.9,110
"AUACUCAUGUAAGGAUAUGCAGCCGAAACGGCUGCAGAAGGUACUAUAAUACAUGAGGAUCACCCAUGUCAAAAUAAAAUAGUU [Mat - Same State NG 1 - JL mod - D100] (Eterna round: R96, puzzle: Same State NG 1)",–,–,–,20.6,25.4,25
ACCCAAAGUAUAUGGGAACAAGCUUUUUAACAUGAGGAUCACCCAUGUGCUCGUCUUAUAAGCAGUCGAAAGACUGC [Sensor 100 - 7] (puzzle: Sensor for hsa-mir-208a),65.1,–,69,–,–,–
"UGUUGUUAAUUAGGAUAUGGUCACAUGAGGAUCACCCAUGUAAUGUCGAUGCUAUGUGGAUUUGAUCAGAAGGAAUGGUUAACA [SameState NG2 #98] (Eterna round: R96, puzzle: Same State NG 2)",–,–,–,49.2,62.3,90.4
